Reference: US8252764B2, “Compositions and methods of use of targeting peptides against placenta and adipose tissues” (priority 2000, dated 2012)
Values belong to the compound of their own block, whether it stands above or below them. Bridge positions count the residues as written; N and C are the ends. Square brackets hold non-standard residues; d marks the D form. Ends that are not written are not given here. Peptide text beside a SMILES is read from it. * marks the point of attachment. Cbz = O=C(OCc1ccccc1)*; CH2F = FC*

How the values were obtained:
[1] = tested on: fat vasculature; assay type: in vivo
Description: FIG. 10. Treatment of mouse obesity with fat vasculature-targeted apoptosis. Three cohorts (n=3) of (A) high-fat cafeteria diet-fed obese c57bl/6 mice; or (B) regular diet-fed old (˜1 year) c57bl/6 mice were each subcutaneously injected daily with equimolar amounts of the indicated peptides. Mouse body mass measurement was taken on days when injections were performed (injections were skipped on days for which body mass measurement is not shown). Error bars are SEM for the measurements in three mice.
FIG. 11. Fat resorption induced by fat vasculature-targeted apoptosis. (A) Representative high-fat cafeteria diet-fed obese c57bl/6 mice; (B) and (C) representative regular diet-fed old (˜1 year) c57bl/6 mice; or (D) epididymal fat from representative regular diet-fed old c57bl/6 mice from the experiment described in FIG. 10. Whole mice (A), subcutaneous fat (B), peritoneal fat (C) and total epididymal fat (D) from the corresponding indicated treatments were photographed 1 week (A) or 3 weeks (B), (C) and (D) after the beginning of subcutaneous injections. The injected peptides were […] (SEQ ID NO:22) linked to (KLAKLAK)2 (SEQ ID NO:1) (left column), CARAC (SEQ ID NO:12) linked to (KLAKLAK)2 (SEQ ID NO:1) (middle column), and […] (SEQ ID NO:22) co-administered with (KLAKLAK)2 (SEQ ID NO:1) (right column).
FIG. 12. Destruction of fat blood vessels as a result of targeted apoptosis. (A) Tunnel immunohistochemistry, (B) secondary antibody only negative tunnel staining control and (C) and (D) hematoxylin/eosin staining of white fat of mice. (A), (B) and (C) Mice were treated with […] (SEQ ID NO:22) linked to (KLAKLAK)2 (SEQ ID NO:1). (D) Mice were treated with CARAC (SEQ ID NO:12) linked to (KLAKLAK)2 (SEQ ID NO:1). Apoptosis (arrows, (A)) and necrosis/lymphocyte infiltration (arrows, (C)) in response to […] (SEQ ID NO:22) linked to (KLAKLAK)2 (SEQ ID NO:1) treatment are indicated. Bar: 10 μm.
Stocks of […] (SEQ ID NO:22) fused to (KLAKLAK)2 (SEQ ID NO:1); (KLAKLAK)2 (SEQ ID NO:1) alone; CARAC (SEQ ID NO:12) fused to (KLAKLAK)2 (SEQ ID NO:1); and […] (SEQ ID NO:22) peptide were chemically synthesized, cyclized using the terminal cysteines and HPLC-purified to >90% (Anaspec). Lyophilized peptides were dissolved in DMSO to a concentration of 65 mM to make stock solutions. A total of 150 μl of 0.65 mM peptide solution in PBS was subcutaneously injected daily in the back of C57BL/6 males, after body mass was measured each day. High-fat cafeteria diet for obesity induction (TD97366: 25.4% fat, 21.79% protein, 38.41% carbohydrate) was purchased from Harlan Teklad. Mice were pre-fed with TD97366 prior to the initiation of treatment with adipose targeting peptides to induce diet-related obesity.

[2] = tested on: HUVEC cells; assay: Apoptosis assay in HUVEC (propidium iodide, chromatin fragmentation); assay type: cell-based, human
Description: FIG. 26. Penetratin peptide chimera binding to the β5 cytoplasmic domain induces programmed cell death. 10^6 HUVEC cells were harvested in complete media and 15 μM penetratin peptide chimeras were added to the cells. […] (a) Profile obtained with starved cells after 24 h. (b) Confluent cells in complete media. (c) 15 μM of penetratin after four hours. (d) 15 μM of VISY-penetratin chimera after four hours.
FIG. 30. Chimeric peptide containing VISY peptide linked to penetratin (antennapedia) induces apoptosis. VISY induced apoptosis was inhibited by addition of a caspase inhibitor (zVAD).
Approximately 1×10^6 cells were harvested in complete media and 15 AM of peptide added for 4, 8, or 12 h. The cellswere then washed in PBS and resuspended in 0.5 ml propidium iodide solution (50 μg/ml PI, 0.1% Triton X-100, 0.1% sodium citrate). After a 24-h incubation at 4° C., cells were counted with a XL Coulter (Coulter Corporation) with a 488-nm laser; 12,000 cells were counted for each histogram, and cell cycle distributions were analyzed with Multicycle program.
Approximately 1×10^6 cells were harvested in complete medium, and 15 μM of peptide was added for 4, 8, or 12 hours. The cells were then washed in PBS and resuspended in 0.5 ml propidium iodide solution (50 μg/ml PI, 0.1% Triton X-100, 0.1% sodium citrate). After a 24-h incubation at 4° C., the cells were counted with an XL Coulter (Coulter Corporation) with a 488 nm laser; 12,000 cells were counted for each histogram, and cell cycle distributions were analyzed with the Multicycle program.
10^6 HUVEC were treated with 15 μM of VISY antennapedia (penetratin) chimera or 15 μM of antennapedia peptide (pentratin) alone for 2-4 hours and chromatin fragmentation was analyzed by electrophoresis in an agarose gel.

[3] = molecular target: T1, prohibition receptor protein complex (Mus musculus, UniProt P67778); assay: Adipose receptor protein binding and immunoprecipitation
T1 construct: from tissue; host or cells: mouse adipose tissue extract
T1 sequence (P67778 2-272 limits assumed): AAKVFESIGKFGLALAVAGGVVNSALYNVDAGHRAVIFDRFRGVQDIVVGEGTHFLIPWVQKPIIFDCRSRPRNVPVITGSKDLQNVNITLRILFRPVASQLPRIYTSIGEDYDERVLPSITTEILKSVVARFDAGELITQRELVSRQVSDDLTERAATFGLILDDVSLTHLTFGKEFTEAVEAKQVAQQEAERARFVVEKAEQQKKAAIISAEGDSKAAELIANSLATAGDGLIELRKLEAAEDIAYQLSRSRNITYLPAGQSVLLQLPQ
Description: A band of approximately 35,000 Daltons (35 kDa) was isolated from mouse adipose tissue extract that bound to […] (SEQ ID NO:22) conjugated to (KLAKLAK)2 (SEQ ID NO:1). […] The 35 kDa band was analyzed by mass spectrometry, which identified three proteins present in the sample.
The three proteins included predominately a B cell receptor associated protein (prohibition), apolipoprotein E, and the voltage dependent anion channel (VDAC). Further studies were performed by immunoprecipitation, using either […] (SEQ ID NO:22) or CARAC (SEQ ID NO:12) conjugated to (KLAKAK)2 (SEQ ID NO:1) and precipitating with commercially available antibodies.
It is unknown whether those proteins bound to the CARAC (SEQ ID NO:12) moiety or to (KLAKAK)2 (SEQ ID NO:1).

[4] = tested on: SK-RC-49/APA cells; assay: Phage binding specificity assay on SK-RC-49/APA cells; assay type: cell-based; details: phage displaying the peptide insert, data not shown
Description: The cell binding assay was performed with an input of 10^9 TU as described for the cell panning. The specificity was confirmed by adding […] (SEQ ID NO:56) peptide to the binding medium in increasing concentrations. For phage binding on immunocaptured APA, wells were blocked for 1 h at room temperature with PBS/3% BSA and incubated with 10^9 TU for 1 h at room temperature in 50 μl PBS/3% BSA. After eight washes in PBS/1% BSA/0.01% Tween-20 and two washes in PBS, phage were rescued by adding 200 μl of exponentially growing K91Kan E. coli. Each experiment was repeated at least three times.

[5] = molecular target: T2, β3 integrin cytoplasmic domain (Homo sapiens, UniProt P05106); assay: Binding of Fyn-phosphorylated phage to β3 cytoplasmic domain; details: for Phos/Unphos: Fyn-phosphorylated versus unphosphorylated phage; for β3 or β5/BSA / β3 or β5/GST: X4YX4 library phosphorylated with Fyn
T2 sequence (P05106 742-788 limits assumed): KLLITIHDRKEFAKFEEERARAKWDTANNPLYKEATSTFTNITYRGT
Description: (§1) Phosphorylation of peptide libraries with src family protein kinases (Fyn, c-Src, Lyn, and Syc) and serine/threonine kinases such as a MAP kinase were performed as described previously (Schmitz et al., 1996; Dente et al., 1997; Gram et al., 1997). Briefly, phage particles were collected from culture supernatants by double precipitation with 20% polyethylene glycol 8000 in 2.5 M NaCl. Particles were dissolved at 10^12 particles/ml. Purified phage (10 μl) were incubated for 3 hours at room temperature with different concentrations (35 to 3,500 units) of protein kinases in a reaction buffer volume of 50 μl. The reaction mixtures were transferred to tubes containing 10 μg of agarose-conjugated anti-P-Tyr, anti-P-Ser, or anti-P-Thr monoclonal antibodies to select phage displaying phosphorylated peptides. Bound phage were eluted by washing the column with 0.3 ml of elution buffer (0.1 M NaCl/glycine/1 mg/ml BSA, pH 2.35). The eluates were neutralized with 2 M Tris-base and incubated with 2 ml of a mid-log bacteria culture. Aliquots of 20 μl were removed for plating, and phage were harvested as described. The phosphorylation-selection step was repeated. Phosphorylated peptides binding to β3 and β5 cytoplasmic domains were analyzed as described in the previous section.
(§2) Randomly selected clones from rounds III and IV were sequenced from a X4YX4 phosphorylated library with Fyn. Amino acid sequences of the phagemid encoded peptides were deduced from nucleotide sequences. […] The ratio of binding to β3 or β5 was calculated by dividing the number of β3 or β5 colonies by GST or BSA colonies found after panning. The ratio of binding to β3 or β5 with phosphorylated phage by Fyn versus unphosphorylated phage was calculated by dividing the number of colonies found after the panning.
(§3) The effect of phosphorylation on the affinity and specificity of the cytoplasmic domain-binding was examined. Phage displaying the β3 and β5 cytoplasmic domain-binding peptides were phosphorylated in vitro as previously described (Schmitz et al., 1996; Dente et al., 1997; Gram et al., 1997), using Fyn kinase. Specific phosphorylation of the tyrosine-containing peptide on the surface of the phage was confirmed by using ^32P-gamma […] in the kinase reaction and by separating the phage pIII protein by SDS-PAGE.

[6] = molecular target: T3, β5 integrin cytoplasmic domain (Homo sapiens, UniProt P18084); assay: Binding of Fyn-phosphorylated phage to β5 cytoplasmic domain; details: for Phos/Unphos: Fyn-phosphorylated versus unphosphorylated phage; for β3 or β5/BSA / β3 or β5/GST: X4YX4 library phosphorylated with Fyn
T3 construct: screenings involving the β5 cytoplasmic domain fusion protein
T3 sequence (P18084 743-799 limits assumed): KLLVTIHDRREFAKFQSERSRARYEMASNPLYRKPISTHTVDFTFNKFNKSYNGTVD
Description: as §1, §2, §3

Compound: CC(C)C[C@@H](NC(=O)[C@@H](CCCCN)NC(=O)CNC(=O)CNC(=O)[C@@H]1CSSC[C@H](N)C(=O)N[C@@H](CCCCN)C(=O)NCC(=O)NCC(=O)N[C@@H](CCCNC(=N)N)C(=O)N[C@@H](C)C(=O)N[C@@H](CCCCN)C(=O)N[C@@H](CC(=O)O)C(=O)N1)C(=O)N[C@H](C)C(=O)N[C@H](CCCCN)C(=O)N[C@H](CC(C)C)C(=O)N[C@H](C)C(=O)N[C@H](CCCCN)C(=O)N[C@H](CCCCN)C(=O)N[C@H](CC(C)C)C(=O)N[C@H](C)C(=O)N[C@H](CCCCN)C(=O)N[C@H](CC(C)C)C(=O)N[C@H](C)C(=O)N[C@H](CCCCN)C(=O)O (H-CKGGRAKDCGG[dK][dL][dA][dK][dL][dA][dK][dK][dL][dA][dK][dL][dA][dK]-OH; disulfide 1-9)
mortality in genetically obese mice ([1]; genetically obese mice, not in normal obese mice): occasionally observed to result in mortality within a few days of injection
abnormalities in other organs ([1]; mouse, in vivo): No abnormalities in other organs

Compound: COC(=O)C[C@H](NC(=O)[C@H](C)NC(=O)[C@@H](NC(=O)OCc1ccccc1)C(C)C)C(=O)CF [zVAD, reference compound] (Cbz-Val-Ala-Asp(OMe)-CH2F)
inhibition of VISY chimeric peptide induced apoptosis ([2]; added to the media at the same time as the VISY chimeric peptide): up to 70%

Compound: CARAC-(KLAKLAK)2: control CARAC (SEQ ID NO:12) fused to (KLAKLAK)2 (SEQ ID NO:1) (CARACKLAKLAKKLAKLAK) [reference compound]
histopathological analysis of white fat ([1]; TUNEL, hematoxylin/eosin): no vascular apoptosis or fat necrosis
body mass change (in words) ([1]; high-fat cafeteria diet-fed obese C57BL/6 mice, equimolar amount, sc daily): did not show a significant body mass decrease
binding of 35 kDa band from mouse adipose tissue extract ([3]; data not shown): much less binding
binding to VDAC, prohibition and apolipoprotein E ([3]; immunoprecipitation): low levels of non-specific binding to all three proteins

Compound: CGTGCAVECEVVC
selective binding of phage to SK-RC-49/APA cells [4]: no selective binding

enrichment of prohibition receptor protein complex in precipitated fraction compared to CARAC precipitated fraction ([3]; immunoprecipitation, SDS-PAGE, data not shown): over a ten-fold enrichment
Compound: CKGGRAKDC

Phos/Unphos [5]: 13.2
β3 or β5/BSA [5]: 5.3
β3 or β5/GST [5]: 1.5
Compound: GGGSYRHVE

Phos/Unphos [5]: 2.5
β3 or β5/BSA [5]: 2.7
β3 or β5/GST [5]: 3.5
Compound: MLLGYRFEK

Phos/Unphos [6]: 3.8
β3 or β5/BSA [6]: 15.2
β3 or β5/GST [6]: 3.8
Compound: TLRKYFHSS

Phos/Unphos [6]: 4.2
β3 or β5/BSA [6]: 3.8
β3 or β5/GST [6]: 2.3
Compound: TMLRYFMFP

Phos/Unphos [6]: 14.3
β3 or β5/BSA [6]: 2.2
β3 or β5/GST [6]: 3.4
Compound: TMLRYTVRL

Compound: VISY-penetratin chimera: VVISYSMPD (β5 cytoplasmic domain-binding peptide) coupled to penetratin, plus a biotin moiety (VVISYSMPDRQIKIWFQNRRMKWKK; also: biotin moiety, place not given here)
induction of apoptosis (chromatin fragmentation) ([2]; 10^6 HUVEC, 15 μM, 2-4 hours): induction of apoptosis
induction of apoptosis (propidium iodide staining) ([2]; HUVEC, 15 μM, four hours): induction of apoptosis
